{"source": "the nanobody polyreactivity screen of Harvey et al. (2022)", "data": [{"test": "yeast display, Sf9 membrane polyspecificity reagent, FACS + sequencing; frameworks hold sequencing errors", "procedure,_shortened": "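Polyreactivity labels are assigned by the sorting gate from which each nanobody was recovered. The gates were low and high (top ~1%), set on anti-HA fluorescence for expression and streptavidin fluorescence for reagent binding. Before sorting, galactose-induced (36–48 hours) yeast display cells were stained for 1 hour at 4 °C with 10% biotinylated, detergent-solubilized Sf9 membrane reagent.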", "values": [{"sequence": "QVQLVESGGGLVQAGGSLRLSCAASGRTCRRYTIGWYRQAPGKERELVAAITSGGRTNYADSVKGRFTISRDNAKNTVYLQMNSLKPEDTAVYYCNAQNEIWRVTFSPYDRWGYDYWGQGTQVTVSS", "polyreactivity (PSR sort gate)": "low polyreactivity"}, {"sequence": "QVQLVESGGGLVQAGGSLRLSCAASGRTFAANTMGWYRQAPGKERELVAAINSGGSTYYADSVKGRFTISRDNAKNTVYLHMNSLKPEATAVYYCAVSWWEVPRIFGYSSRYDYWGQGTQVTVSS", "polyreactivity (PSR sort gate)": "high polyreactivity"}, {"sequence": "QVQLVESGGGLVQAGGSLRLSCAASGRTFAAYAMGWYIQSPGKERELVAAISSTSGNTYYADSVKGRFTISRDNAKNTVYLQMNSLKPEDTAVYYCNAQRRFNANYWYDYWGQGTQVTVSS", "polyreactivity (PSR sort gate)": "high polyreactivity"}, {"sequence": "QVQLVESGGGLVQAGGSLRLSCAASGRTFAAYAMGWYRQAPGKEREFVADITYSGGSTTYADSVKGRFTISRDNAKNTVYLLMNSLNPEDTAVYYCNKLAYTPGWRGFVWYDYWGQGTQVSVSS", "polyreactivity (PSR sort gate)": "low polyreactivity"}, {"sequence": "QVQLVESGGGLVQAGGSLRLSCAASGRTFAFNAMGRYRQAPGKEMELVAAISRSGGSTYYADSVKGRFTISRDNAKNTVYLQMNSLKPEDTAVYYCNAYYNRYPGYDYWGQGTQVTVSS", "polyreactivity (PSR sort gate)": "high polyreactivity"}, {"sequence": "QVQLVESGGGLVQAGGSLRLSCAASGRTFAFNAMGWYRQAPGKERELVATISWSGGSTYYADSVKGRFTISRDNAKNTVYLQMNSLKPEDTAVYYCAKVVRGSNDYDYWGQGTQVTVSS", "polyreactivity (PSR sort gate)": "high polyreactivity"}, {"sequence": "QVQLVESGGGLVQAGGSLRLSCAASGRTFAFYAMGWYRQAPGKERELVASISSSGDRTYYADSVKGRFTISRVNAKNTVYLQMNSLKPEDTAVYYCAARWRYTYYYWGQGTQVTVSS", "polyreactivity (PSR sort gate)": "high polyreactivity"}, {"sequence": "QVQLVESGGGLVQAGGSLRLSCAASGRTFAGNAMGWYRQAPGKEREFVASITASGVNTYYADSVKGRFTISRDNAKNTVYLQMNSLKPEDTAVYYCNKRNRWTPFYTYDYWGQGTQVTVSS", "polyreactivity (PSR sort gate)": "low polyreactivity"}, {"sequence": "QVQLVESGGGLVQAGGSLRLSCAASGRTFAGYAMGWYRQAPGKERELVAAISGSGGRTYYADSVKGRFTISRDNAKNTVYLQMNSLKPEDTAVYYCAASQRVYIARSDYWGQGTQATVSS", "polyreactivity (PSR sort gate)": "high polyreactivity"}, {"sequence": "QVQLVESGGGLVQAGGSLRLSCAASGRTFAGYAMGWYRQAPGKERELVAGIRRSGDSTYYADSVKGRFTISRDNAKNTVYLQMNSLKPEDTAVYYCAAAPISKYGPYRGTGYRMGYWGQGTQVTVSS", "polyreactivity (PSR sort gate)": "high polyreactivity"}, {"sequence": "QVQLVESGGGLVQAGGSLRLSCAASGRTFAGYTMGWYRQAPGKERELVAAITKSGGSTYYADSVKGRFTISRDNEKNTVYLQMNSLKPEDTAVYYCAARYIPSRYGTGCGYYSWGQGTQVTVSS", "polyreactivity (PSR sort gate)": "high polyreactivity"}, {"sequence": "QVQLVESGGGLVQAGGSLRLSCAASGRTFAHNAMGWYRQAPGKERELVAAITWSGGTTYYADSVKGRFTISRDNAKNTVYLHMNSLKPEDTAVYYCNTYSYQPDPKYDYWGQGTQVTVSS", "polyreactivity (PSR sort gate)": "low polyreactivity"}, {"sequence": "QVQLVESGGGLVQAGGSLRLSCAASGRTFAHNAMGWYRQAPGKERELVAAITWSGGTTYYADSVKGRFTISRDNAKNTVYLQMNSLKPEDTAVYYCNTYSYQPDPKYDYWGQGTQVTVSS", "polyreactivity (PSR sort gate)": "low polyreactivity"}, {"sequence": "QVQLVESGGGLVQAGGSLRLSCAASGRTFAIYAMGWYRQAPGKERELVAAIRKRGSITYYADSVKGRFTISRDNAKNTVYLQMNSLKPEDTAVYYCAVDYWGQGTQVTVSS", "polyreactivity (PSR sort gate)": "high polyreactivity"}, {"sequence": "QVQLVESGGGLVQAGGSLRLSCAASGRTFAIYTRGWYRQAPGKERELVASITSSGASTYYADSVKGRFTISRDNAKNTVYLQMNSLKPEYTAVYYCAAGWYQGFDYWGQGTQVTVSS", "polyreactivity (PSR sort gate)": "high polyreactivity"}, {"sequence": "QVQLVESGGGLVQAGGSLRLSCAASGRTFAKYAMGWYRQAPGKEREWVAAINSSGGSTYYADSVKGRFTISRDNAKNTVYLQMNSLKPEDTAVYYCAKEYYSYDVYLGVSYVGRYDYWGQGTQVTVSS", "polyreactivity (PSR sort gate)": "low polyreactivity"}]}]}
